# Experimental data taken from paper PMC10716038, “Talin and kindlin use integrin tail allostery and direct binding to activate integrins” (Nature Structural & Molecular Biology, 2023).
# Several values for one entry are separate records, joined by “and”; a condition that tells them apart may be missing. Equal entries are not always repeated. No end group written: not given here.
# T1: biotinylated integrin β3 transmembrane and cytoplasmic tail polypeptide (β3-TM–CT) in nanodiscs (UniProt O54890 715-787, biotin (biotin-maleimide))
# T1 construct: integrin β3 TM and CT, residues 715-787; embedded in MSP2N2 nanodiscs with 10% PIP2 or PIP3 and 90% DMPC; held on streptavidin beads; also called b3; source: E. coli BL21 (DE3) Rosetta 2, inclusion bodies, purified (IMAC, cation exchange)
# T1 sequence (looked up): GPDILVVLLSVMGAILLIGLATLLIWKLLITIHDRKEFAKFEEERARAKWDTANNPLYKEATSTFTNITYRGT
# B1: talin-1 head domain (THD1) (domain or fragment, UniProt P26039 1-405, looked up)
# chain: MVALSLKISIGNVVKTMQFEPSTMVYDACRMIRERIPEALAGPPNDFGLFLSDDDPKKGIWLEAGKALDYYMLRNGDTMEYRKKQRPLKIRMLDGTVKTIMVDDSKTVTDMLMTICARIGITNHDEYSLVRELMEEKKDEGTGTLRKDKTLLRDEKKMEKLKQKLHTDDELNWLDHGRTLREQGVEEHETLLLRRKFFYSDQNVDSRDPVQLNLLYVQARDDILNGSHPVSFDKACEFAGFQCQIQFGPHNEQKHKAGFLDLKDFLPKEYVKQKGERKIFQAHKNCGQMSEIEAKVRYVKLARSLKTYGVSFFLVKEKMKGKNKLVPRLLGITKECVMRVDEKTKEVIQEWSLTNIKRWAASPKSFTLDFGDYQDGYYSVQTTEGEQIAQLIAGYIDIILKKKKS
# notes: talin-1 (TLN1) head domain (THD), residues 1-405; murine TLN1 cDNA is named only for the cell lines; also called WT; source: E. coli (DE3) Rosetta 2, purified (IMAC, SEC); not shown: His10-SUMO, N-terminal, cleaved
# Experiments:
# Details in all cases: both partners purified
# [1] = biological target: T1, biotinylated integrin β3 transmembrane …; assay: flow cytometry-based reporter-displacement assay (FC-RDA) on beads; biotinylated TM–CT in 10% PIP3/90% DMPC nanodiscs on streptavidin beads; reporter 100 nM 565–THD1, unlabelled competitor titrated; 20 mM Tris pH 7.5, 200 mM NaCl, room temperature; IC50 of individual experiments; charged lipids contribute to the binding
# [2] = biological target: T2, biotinylated integrin β1 transmembrane and cytoplasmic tail polypeptide (β1-TM–CT) in nanodiscs (UniProt P09055 726-798, biotin (biotin-maleimide)); assay: flow cytometry-based reporter-displacement assay (FC-RDA) on beads; biotinylated TM–CT in 10% PIP2/90% DMPC nanodiscs on streptavidin beads; reporter 50 nM 647–KIND2, unlabelled competitor titrated; 20 mM Tris pH 7.5, 200 mM NaCl, room temperature; IC50 of individual experiments; charged lipids contribute to the binding
# T2 construct: integrin β1 TM and CT, residues 726-798; embedded in MSP2N2 nanodiscs with 10% PIP2 or PIP3 and 90% DMPC, on average one TM–CT per nanodisc; held on streptavidin beads; also called b1; source: E. coli BL21 (DE3) Rosetta 2, inclusion bodies, purified (IMAC, cation exchange)
# [3] = biological target: T2, biotinylated integrin β1 transmembrane …; assay: flow cytometry-based reporter-displacement assay (FC-RDA) on beads; biotinylated TM–CT in PIP2-containing nanodiscs on streptavidin beads; reporter 647–KIND2-Y13A, unlabelled competitor titrated; IC50 of individual experiments
# [4] = biological target: T2, biotinylated integrin β1 transmembrane …; assay: flow cytometry-based reporter-displacement assay (FC-RDA) on beads; biotinylated TM–CT in 10% PIP2/90% DMPC nanodiscs on streptavidin beads; reporter 100 nM 565–THD1, unlabelled competitor titrated; 20 mM Tris pH 7.5, 200 mM NaCl, room temperature; IC50 of individual experiments; charged lipids contribute to the binding
# [5] = biological target: B1; assay: MST; unlabelled protein titrated to 50-200 nM ATTO 488-labelled β-CT peptide, no third protein; 20 mM Tris pH 7.5, 200 mM NaCl, 1 mM TCEP, 0.05% Tween-20; Kd of individual titrations (in S0002 mean and sd, n = 2)
# [6] = biological target: B1; assay: as above; remark: listed apart in the source
# [7] = biological target: B1; assay: MST; apparent; THD1 titrated to 488–β1-CT or 488–β3-CT in the presence of 300–400 µM β-CT-binding-impaired KIND2 Q614A,W615A (QW/AA); MST buffer
# [8] = biological target: B1; assay: MST; apparent; THD1 titrated to 488–β1-CT or 488–β3-CT in the presence of 500–1,100 µM KIND2-F0; MST buffer
# [9] = biological target: B1; assay: MST; apparent; THD1 titrated to 488–β1-CT or THD2 to 488–β3-CT in the presence of 30 µM KIND2; MST buffer
Binder,IC50 [1],IC50 [2],IC50 [3],IC50 [4],Kd [5] [µM],Kd [6],Kd [7],Kd [8],Kd [9]
B1,0.053 µM and 0.07 µM and 0.127 µM,0.249 µM and 0.192 µM and 0.087 µM,0.321 µM and 0.39 µM and 0.506 µM and 0.206 µM,0.049 µM and 0.091 µM and 0.089 µM and 0.062 µM,,,,,
"{ATTO 488}-HDRREFAKFEKEKMNAKWDTGENPIYKSAVTTVVNPKYEGK (peptide, UniProt P09055-1 758-798, looked up, integrin β1A cytoplasmic tail (β1-CT), residues 758-798; the limits 758-798 are stated for the recombinant β1-CT; also called β1A-CT; source: synthetic peptide (MPIB Core Facility)) [ATTO 488-labeled integrin β1 cytoplasmic tail (488–β1-CT)]",,,,,152,128 µM and 152 µM and 141 µM,148 µM and 212 µM and 195 µM,173 µM and 137 µM and 177 µM,159 µM and 173 µM and 127 µM
